Paper PMC9287174

Key:
[1] = target: StayGold (CU17S/V168A) (Cytaeis uchidae); assay: pseudonative SDS-PAGE; non-heated protein samples separated on 10% polyacrylamide gels
[2] = target: StayGold (CU17S/V168A) (Cytaeis uchidae); assay: AUC; sedimentation equilibrium; purified recombinant StayGold at 2.8 uM in 50 mM HEPES-NaOH (pH 7.4), 24 C, absorbance at 497 nm

## StayGold (CU17S/V168A) (natural protein)
[1]
  stoichiometry N: 2
[2]
  stoichiometry N: 2
